Measurements from PMC3832608.
Blank lines part the entries; values can stand above or below the binder they belong to.

Biological target: T1, Corticotropin Releasing Factor receptor 2 (CRF2) (human (endogenous in HT-29)) (UniProt Q13324)
T1 sequence: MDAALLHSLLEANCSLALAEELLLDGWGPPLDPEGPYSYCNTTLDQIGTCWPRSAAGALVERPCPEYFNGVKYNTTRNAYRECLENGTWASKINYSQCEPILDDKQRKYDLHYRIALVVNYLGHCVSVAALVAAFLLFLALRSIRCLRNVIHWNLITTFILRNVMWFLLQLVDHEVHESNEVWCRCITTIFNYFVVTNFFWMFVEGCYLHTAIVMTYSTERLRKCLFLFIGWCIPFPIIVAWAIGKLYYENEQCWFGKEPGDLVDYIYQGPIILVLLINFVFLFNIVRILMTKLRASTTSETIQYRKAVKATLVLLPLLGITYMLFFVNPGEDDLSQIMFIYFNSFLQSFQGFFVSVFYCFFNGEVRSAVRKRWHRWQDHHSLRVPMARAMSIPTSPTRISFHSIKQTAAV

- cAMP production by HT-29 cells treated with 1 µM Ucn3 (ELISA kit); completely reversed by 1 µM astressin2b (A2b) (pM of cAMP/10^5 cells): 2.4
Binder: FTLSLDVPTNIMNLLFNIAKAKNLRAQAAANAHLMAQI [Urocortin 3 (Ucn3)]

- cAMP production by HT-29 cells treated with 1 µM Ucn2 (ELISA kit); completely reversed by 1 µM astressin2b (A2b) (pM of cAMP/10^5 cells): 1
Binder: IVLSLDVPIGLLQILLEQARARAAREQATTNARILARVGHC [Urocortin 2 (Ucn2)]

- cAMP production by HT-29 cells treated with 1 µM CRF (ELISA kit); completely reversed by 1 µM astressin2b (A2b) (pM of cAMP/10^5 cells): 0.5
Binder: SEEPPISLDLTFHLLREVLEMARAEQLAQQAHSNRKLMEIIGK [Corticotropin releasing factor (CRF)]
